Data on one molecule can be found in patent publication US5977442A, “Salicylic acid induced map kinase and its use for enhanced disease resistance in plants” (priority 1997, dated 1999).

The target of one data set is T1, p48 SIP kinase (Nicotiana tabacum, UniProt A0A1S3Z5Y0).
T1 construct: endogenous in cells; host or cells: SA-treated tobacco suspension culture cells (purified through the poly-L-lysine agarose step)
Put plainly: Kinetic properties, substrates, cofactors and pH dependence of p48 SIP kinase (in-solution kinase assay). The class given is biochemical, tobacco. To be noted: pH of 5.5 or 10. As to the method:
FIGS. 10A and 10B show a pair of graphs illustrating the effect of pH (FIG. 10A), Mg^2+ and Mn^2+ (FIG. 10B) on p48 SIP kinase activity. Approximately 0.5 unit of partially purified enzyme was used in each test. Buffers used for measuring the effect of pH were 50 mM 2-[N-morpholino]ethanesulfonic acid (Mes, pH 5.0-8.0, .circle-solid.), 50 mM Tris (pH 6.0-9.5, .tangle-solidup.), and 50 mM 3-[cyclohexylamino]-1-propanesulfonic acid (Caps, pH 9.0-12.0, .box-solid.). For testing the effects of Mg^2+ (.circle-solid.), and Mn^2+ (.tangle-solidup.), buffer B from the last purification step was first exchanged to Mg^2+ -free buffer using a desalting column. Mg^2+ was not added in reactions for testing the effect of Mn^2+.
FIG. 11 is a graph depicting the protein substrate preference of the p48 SIP kinase. About 0.5 unit of partially purified enzyme was used in each reaction. The assay conditions were as described below in Example 1, except various concentrations of MBP (.circle-solid.), histone (.tangle-solidup.), and casein (.box-solid.) were used.
Unless specifically indicated, assays were performed at room temperature for 20 minutes in a final volume of 15 μl containing 0.5 mg/mL of MBP, 50 μM of γ-^32 P-ATP (about 3000-6000 cpm/pmole), 25 mM Tris pH 7.5, 5 mM MgCl2, 1 mM EGTA, 1 mM DTT, and enzyme. The reaction was terminated by the addition of equal volume of 150 mM H3 PO4. Twenty μL of the mixture was spotted onto an 8-well phosphocellulose filter strip (Pierce, Ill.). After washing with 150 mM H3 PO4 extensively, the phospho-protein was eluted with 0.4 mL of 1 N NaOH, and the radioactivity was determined by liquid scintillation counting. Total cpm in the reaction mixture was also determined in order to calculate the specific activity of the enzyme preparation. One unit of p48 SIP kinase was defined as the amount of enzyme that will catalyze the transfer of 1 pmole of phosphate from ATP to MBP in 1 minute.

Data set [1] relates to MBP. Put plainly: Basal phosphorylation activity of recombinant SIP kinase produced in E. coli. To be noted: recombinant protein from E. coli. Format: biochemical. The source says:
A tobacco clone that encodes an exemplary SIP kinase of the invention is described in detail herein. The nucleotide sequence of a cDNA encoding tobacco SIP kinase is set forth below as Sequence I.D. No. 1. It is believed that Sequence I.D. No. 1 constitutes a full-length SIP kinase-encoding clone as it contains a suitable methionine for initiation of translation.
Optionally, transgenic plants would be created containing mutations in the region encoding the active site of SIP kinase. This embodiment is preferred over the use of anti-sense constructs due to the very high homology between MAP kinases. For example, a mutated p48 SIP kinase with a Lys to Arg change in the kinase subdomain II has been made, and could be introduced into wild tobacco plants. […] Since the mutant p48 kinase would still serve as the substrate for upstream MAP kinase kinase and physically compete with the wild-type p48 SIP kinase, but would not transduce signal to downstream components, it may be possible to specifically block the pathway without affecting other MAP kinase cascades.

For data set [2], the system named is MBP. Put plainly: Kinase activity assay during purification of p48 SIP kinase (MBP substrate). Format: biochemical. The procedure: All purification procedures were carried out in a cold room or in a 4° C. chamber. Protein extract from about 200 grams of SA-treated cells was first fractionated by (NH4)2 SO4 precipitation. Saturated ammonium sulfate solution was slowly added to total protein extract to 30% of final concentration. After slowly stirring for 30 minutes, the precipitate was collected by centrifugation at 23,000×gfor 10 minutes. The pellets were then dissolved in a total of 30 mL of buffer A (25 mM Tris, pH 7.5, 1 mM EGTA, 10 mM β-glycerolphosphate, 0.1 mM Na3 VO4, 1 mM DTT, 5% glycerol) plus 1 mM phenylmethylsulfonyl fluoride, 5 μg/mL each of antipain, aprotinin, and leupeptin. […]
Unless specifically indicated, assays were performed at room temperature for 20 minutes in a final volume of 15 μl containing 0.5 mg/mL of MBP, 50 μM of γ-^32 P-ATP (about 3000-6000 cpm/pmole), 25 mM Tris pH 7.5, 5 mM MgCl2, 1 mM EGTA, 1 mM DTT, and enzyme. […] After washing with 150 mM H3 PO4 extensively, the phospho-protein was eluted with 0.4 mL of 1 N NaOH, and the radioactivity was determined by liquid scintillation counting. Total cpm in the reaction mixture was also determined in order to calculate the specific activity of the enzyme preparation. […]

T1 sequence (A0A1S3Z5Y0 whole entry): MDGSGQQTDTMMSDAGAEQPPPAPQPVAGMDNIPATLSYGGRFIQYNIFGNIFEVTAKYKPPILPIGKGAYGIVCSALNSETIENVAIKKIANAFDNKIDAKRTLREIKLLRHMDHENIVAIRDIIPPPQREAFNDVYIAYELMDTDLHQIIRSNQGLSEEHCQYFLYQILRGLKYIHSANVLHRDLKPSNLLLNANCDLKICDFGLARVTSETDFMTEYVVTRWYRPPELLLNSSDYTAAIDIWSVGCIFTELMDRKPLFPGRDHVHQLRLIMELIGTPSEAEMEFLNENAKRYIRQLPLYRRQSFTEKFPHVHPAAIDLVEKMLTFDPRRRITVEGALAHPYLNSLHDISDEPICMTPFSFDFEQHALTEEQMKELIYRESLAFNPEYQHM

B1: p48 SIP kinase: novel protein kinase isolated from tobacco, activated by salicylic acid; Sequence I.D. No. 2 (protein)
chain: MDGSGQQTDTMMSDAGAEQPPTAPQPVAGMDNIPATLSHGGRFIQYNIFGNIFEVTAKYKPPILPIGKGAYGIVCSALNSETIENVAIKKIANAFDNKIDAKRTLREIKLLRHMDHENIVAIRDIIPPPQREAFNDVYIAYELMDTDLHQIIRSNQGLSEEHCQYFLYQILRGLKYIHSANVLHRDLKPSNLLLNANCDLKICDFGLARVTSETDFMTEYVVTRWYRPPELLLNSSDYTAAIDVWSVGCIFMELMDRKPLFPGRDHVHQLRLIMELIGTPSEAEMEFLNENAKRYIRQLPLYRRQSFTEKFPHVHPTAIDLVEKMLTFDPRRRITVEGALAHPYLNSLHDISDEPICMTPFSFDFEQHALTEEQMKELIYRESLAFNPEYQHM
modifications: phosphorylated on tyrosine residue(s); serine/threonine phosphorylation also required for activity; positions not given
For the molecule B1, in the data set with p48 SIP kinase, the retained kinase activity result is given as “more than 50%”. The “phosphorylation of MBP / basal phosphorylation activity” value with MBP [1] is recorded as “phosphorylates MBP”. Further, the figures for the “specific activity” value in the data set with MBP [2] (Superdex 200 HR 10/30 fraction) and with MBP [2] (final purified enzyme) were 339600.0 pmol/min/mg and 340000 pmol/min/mg, respectively.
